The target of data set [1] is XynR (Anaerocellum (f. Caldicellulosiruptor) bescii) (UniProt B9MPD1). Put plainly: fluorescence polarization. Particulars: 20 mM Tris-HCl, 100 mM NaCl, 0.02% Tween 20, pH 7.4; FP: 5 nM probe, 30 nM-3 uM protein, 22 C; BLI: 100 nM DNA immobilized on streptavidin sensors. For orientation: Polarisation of emitted light reports the rotation of a fluorescent probe.
Data set [2] addresses T1, XylR (Anaerocellum (f. Caldicellulosiruptor) …, UniProt Q44406 1-399).
T1 sequence: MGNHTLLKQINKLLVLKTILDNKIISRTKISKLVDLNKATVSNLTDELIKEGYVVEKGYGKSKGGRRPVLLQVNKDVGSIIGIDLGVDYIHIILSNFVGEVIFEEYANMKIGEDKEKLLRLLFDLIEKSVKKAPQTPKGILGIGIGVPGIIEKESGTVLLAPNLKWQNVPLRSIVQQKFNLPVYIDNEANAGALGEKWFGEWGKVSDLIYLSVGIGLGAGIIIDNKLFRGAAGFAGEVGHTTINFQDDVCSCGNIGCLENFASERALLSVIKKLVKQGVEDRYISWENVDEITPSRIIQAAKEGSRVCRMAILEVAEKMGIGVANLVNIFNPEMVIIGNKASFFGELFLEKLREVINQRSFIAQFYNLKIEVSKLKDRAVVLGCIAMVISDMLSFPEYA
Put plainly: fluorescence polarization; Hill coefficient <1; 20 mM Tris-HCl, 100 mM NaCl, 0.02% Tween 20, pH 7.4; FP: 5 nM probe, 30 nM-3 uM protein, 22 C; BLI: 100 nM DNA immobilized on streptavidin sensors. Conditions: protein: recombinant; tags: C-terminal 6xHis; chain copies: 2; label: 5' 6-FAM on strand 1; blunt.

Data set [3] concerns the target T1, XylR. Put plainly: BLI; 20 mM Tris-HCl, 100 mM NaCl, 0.02% Tween 20, pH 7.4; FP: 5 nM probe, 30 nM-3 uM protein, 22 C; BLI: 100 nM DNA immobilized on streptavidin sensors. Particulars: protein: recombinant; tags: C-terminal 6xHis; chain copies: 2; label: 5' biotin on strand 1; blunt. Background: Biolayer interferometry detects binding as a change in optical thickness at a sensor tip.

As to “ATTGACTAGTAAACGCTTACGATATATT (double strand) [XDL FP probe]”, the Kd in data set [1] was 161 nM.
On the same count and under the same terms, then “ATTTTCATGAAATCGCTTTCCTATCTAA / TTAGATAGGAAAGCGATTTCATGAAAATA [xynMNC FP probe]”, with 150 nM; and “TAATAATCGAAATCGCTTACAATTCCTG (double strand) [xynR-xylB FP probe]”, with 172 nM.
On the same count and under the same terms, then “TGAGGTTAGAAAGCGGTTTCAAGCAATT (double strand) [xyl3A FP probe]”, with 169 nM.

B1: xynUVW FP probe (dsDNA)
DNA 1: TAAATATATAAATAGTTTGTTTAAGAAATAAACCAAAAGGAGTGATT
DNA 2: AATCACTCCTTTTGGTTTATTTCTTAAACAAACTATTTATATATTTA
For the molecule B1, in data set [2], the Kd turned out to be 165 nM.

B2: xylA BLI probe (dsDNA)
DNA 1: ATTATAGATATTAGTTTGTTTAATAAACAAACTAAGTACACGTACT
DNA 2: AGTACGTGTACTTAGTTTGTTTATTAAACAAACTAATATCTATAAT
In the case of B2, the binding result in data set [3] is given as “binds”.

The term Kd denotes a measure of binding affinity in units of concentration.

(Values after article PMC12285236, “Xylanolytic metabolism is regulated by coordination of transcription factors XynR and XylR in extremely thermophilic Caldicellulosiruptorales”.)
